The test system of the data set is Escherichia coli TOP10. Description: shrunken log2 fold change of peptide-encoding DNA abundance (4.5 h post-induction vs induction); higher = less antimicrobial activity (less host growth inhibition). To be noted: time post-induction: 4.5 h; library: site-saturation at positions 5, 18, 19, 20.
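Also: peptides expressed intracellularly from a pBAD plasmid library in pooled LB shake-flask culture, induced with 0.3% L-arabinose, DNA abundance read by NGS, three biological replicates, DESeq2 with apeglm shrinkage.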

As to RRIRSRPPRLPRPRPRPHICPRP, the “shrunken log2 fold change” value is -0.127.

As for RRIRVRPPRLPRPRPRPSVRPRP, the “shrunken log2 fold change” value is -0.297.

As for RRIRWRPPRLPRPRPRPDVLPRP, the “shrunken log2 fold change” value is -0.0113.

For RRIRSRPPRLPRPRPRPQDEPRP, the “shrunken log2 fold change” value is -0.101.

As for RRIRNRPPRLPRPRPRPLLFPRP, the “shrunken log2 fold change” value was -0.188.

Take RRIRTRPPRLPRPRPRPCMKPRP: the “shrunken log2 fold change” value is -0.332.

RRIRHRPPRLPRPRPRPKVSPRP: the “shrunken log2 fold change” value was -0.112.

In the case of RRIRTRPPRLPRPRPRPIQQPRP, the “shrunken log2 fold change” value is -0.229.

RRIRMRPPRLPRPRPRPLLDPRP: the “shrunken log2 fold change” value came to 0.409.

Regarding RRIRIRPPRLPRPRPRPVAEPRP, the “shrunken log2 fold change” value worked out at 0.243.

For RRIRIRPPRLPRPRPRPLDMPRP, the “shrunken log2 fold change” value is -0.285.

On to RRIRTRPPRLPRPRPRPPLKPRP, for which the “shrunken log2 fold change” value was -0.0323.

Take RRIRMRPPRLPRPRPRPKRMPRP: the “shrunken log2 fold change” value was found to be 1.06.

Regarding RRIRGRPPRLPRPRPRPIFTPRP, the “shrunken log2 fold change” value worked out at 0.284.

In the case of RRIRLRPPRLPRPRPRPCPSPRP, the “shrunken log2 fold change” value was -0.00306.

Take RRIRSRPPRLPRPRPRPQFNPRP: the “shrunken log2 fold change” value was -0.498.

RRIRWRPPRLPRPRPRPLHKPRP: the “shrunken log2 fold change” value stood at 0.0164.

Turning to RRIRQRPPRLPRPRPRPMKYPRP, the “shrunken log2 fold change” value is -0.498.

Turning to RRIRCRPPRLPRPRPRPLRNPRP, the “shrunken log2 fold change” value was found to be 0.272.

In the case of RRIRDRPPRLPRPRPRPVILPRP, the “shrunken log2 fold change” value is -0.146.

Turning to RRIRSRPPRLPRPRPRPDAMPRP, the “shrunken log2 fold change” value came to 0.83.

RRIRKRPPRLPRPRPRPVLGPRP: the “shrunken log2 fold change” value turned out to be 0.977.

For RRIRKRPPRLPRPRPRPANAPRP, the “shrunken log2 fold change” value came to 0.426.

With RRIRARPPRLPRPRPRPECSPRP, the “shrunken log2 fold change” value amounted to 1.

As for RRIRRRPPRLPRPRPRPHWLPRP, the “shrunken log2 fold change” value was 0.28.

For RRIRPRPPRLPRPRPRPHIWPRP, the “shrunken log2 fold change” value was -0.3.

On to RRIRPRPPRLPRPRPRPCEFPRP, for which the “shrunken log2 fold change” value is -0.0795.

For RRIRLRPPRLPRPRPRPTTGPRP, the “shrunken log2 fold change” value worked out at 0.0715.

On to RRIRTRPPRLPRPRPRPQSTPRP, for which the “shrunken log2 fold change” value is -0.236.

For RRIRERPPRLPRPRPRPIMEPRP, the “shrunken log2 fold change” value is -0.465.

As for RRIRYRPPRLPRPRPRPQSEPRP, the “shrunken log2 fold change” value is -0.37.

Turning to RRIRPRPPRLPRPRPRPARQPRP, the “shrunken log2 fold change” value worked out at 0.253.

Turning to RRIRHRPPRLPRPRPRPWGFPRP, the “shrunken log2 fold change” value is -0.0192.

As to RRIRCRPPRLPRPRPRPFCEPRP, the “shrunken log2 fold change” value was 0.000102.

Consider RRIRDRPPRLPRPRPRPEMMPRP, for which the “shrunken log2 fold change” value is 0.71.

Regarding RRIRLRPPRLPRPRPRPHWDPRP, the “shrunken log2 fold change” value amounted to 0.176.

In the case of RRIRERPPRLPRPRPRPVPLPRP, the “shrunken log2 fold change” value was -0.244.

As for RRIRVRPPRLPRPRPRPVNTPRP, the “shrunken log2 fold change” value is -0.236.

As to RRIRCRPPRLPRPRPRPMQIPRP, the “shrunken log2 fold change” value was determined as 0.0467.

Consider RRIRSRPPRLPRPRPRPARTPRP, for which the “shrunken log2 fold change” value turned out to be 0.293.

RRIRRRPPRLPRPRPRPLYGPRP: the “shrunken log2 fold change” value is 0.0447.

Turning to RRIRIRPPRLPRPRPRPWFPPRP, the “shrunken log2 fold change” value is -0.349.

As for RRIRKRPPRLPRPRPRPITAPRP, the “shrunken log2 fold change” value was 0.235.

As for RRIRIRPPRLPRPRPRPERCPRP, the “shrunken log2 fold change” value turned out to be 0.296.

Consider RRIRTRPPRLPRPRPRPHIVPRP, for which the “shrunken log2 fold change” value is -0.102.

On to RRIRKRPPRLPRPRPRPWHMPRP, for which the “shrunken log2 fold change” value is -0.00936.

Turning to RRIRQRPPRLPRPRPRPSIKPRP, the “shrunken log2 fold change” value was -0.425.

Regarding RRIRARPPRLPRPRPRPPDNPRP, the “shrunken log2 fold change” value is 0.576.

As for RRIRIRPPRLPRPRPRPKHMPRP, the “shrunken log2 fold change” value was -0.451.

As for RRIRVRPPRLPRPRPRPQHGPRP, the “shrunken log2 fold change” value was determined as 0.14.

As for RRIRGRPPRLPRPRPRPCMMPRP, the “shrunken log2 fold change” value came out at 0.145.

For RRIRIRPPRLPRPRPRPYDEPRP, the “shrunken log2 fold change” value was -0.338.

Regarding RRIRSRPPRLPRPRPRPQWIPRP, the “shrunken log2 fold change” value is -0.425.

With RRIRFRPPRLPRPRPRPLTRPRP, the “shrunken log2 fold change” value is -0.0631.

As for RRIRPRPPRLPRPRPRPHFDPRP, the “shrunken log2 fold change” value is -0.0993.

Regarding RRIRDRPPRLPRPRPRPVQAPRP, the “shrunken log2 fold change” value worked out at 0.0233.

In the case of RRIRQRPPRLPRPRPRPKSPPRP, the “shrunken log2 fold change” value was -0.089.

On to RRIRLRPPRLPRPRPRPGSGPRP, for which the “shrunken log2 fold change” value stood at 0.337.

With RRIRQRPPRLPRPRPRPICQPRP, the “shrunken log2 fold change” value is -0.153.

As to RRIRQRPPRLPRPRPRPIFSPRP, the “shrunken log2 fold change” value came to 0.0638.

Regarding RRIRRRPPRLPRPRPRPSLRPRP, the “shrunken log2 fold change” value is -0.0199.

For RRIRWRPPRLPRPRPRPQGYPRP, the “shrunken log2 fold change” value was -0.0909.

For the sequence RRIRDRPPRLPRPRPRPESFPRP, the “shrunken log2 fold change” value is -0.0579.

As for RRIRDRPPRLPRPRPRPPDPPRP, the “shrunken log2 fold change” value was found to be 0.931.

In the case of RRIRMRPPRLPRPRPRPNIVPRP, the “shrunken log2 fold change” value turned out to be 0.0335.

In the case of RRIRMRPPRLPRPRPRPHSTPRP, the “shrunken log2 fold change” value was 0.126.

As for RRIRYRPPRLPRPRPRPVHFPRP, the “shrunken log2 fold change” value was -0.451.

Take RRIRTRPPRLPRPRPRPHSAPRP: the “shrunken log2 fold change” value was determined as 0.205.

RRIRVRPPRLPRPRPRPMESPRP: the “shrunken log2 fold change” value came to 0.156.

Regarding RRIRIRPPRLPRPRPRPMRWPRP, the “shrunken log2 fold change” value was -0.0141.

For RRIRIRPPRLPRPRPRPDFCPRP, the “shrunken log2 fold change” value is -0.42.

On to RRIRVRPPRLPRPRPRPKGSPRP, for which the “shrunken log2 fold change” value was 0.0616.

Take RRIRSRPPRLPRPRPRPTTGPRP: the “shrunken log2 fold change” value was determined as 0.0655.

Turning to RRIRQRPPRLPRPRPRPIFQPRP, the “shrunken log2 fold change” value is -0.269.

In the case of RRIRYRPPRLPRPRPRPGLDPRP, the “shrunken log2 fold change” value is -0.188.

Turning to RRIRRRPPRLPRPRPRPVFPPRP, the “shrunken log2 fold change” value came out at 0.488.

As to RRIRTRPPRLPRPRPRPMGGPRP, the “shrunken log2 fold change” value is -0.0576.

With RRIRFRPPRLPRPRPRPAAKPRP, the “shrunken log2 fold change” value is -0.118.

As to RRIRFRPPRLPRPRPRPEYYPRP, the “shrunken log2 fold change” value was -0.0413.

With RRIRARPPRLPRPRPRPAALPRP, the “shrunken log2 fold change” value came to 0.805.

For the sequence RRIRVRPPRLPRPRPRPKKEPRP, the “shrunken log2 fold change” value came to 0.18.

Regarding RRIRKRPPRLPRPRPRPFNAPRP, the “shrunken log2 fold change” value turned out to be 0.0749.

Consider RRIRTRPPRLPRPRPRPQRWPRP, for which the “shrunken log2 fold change” value was found to be 0.137.

In the case of RRIRTRPPRLPRPRPRPNYSPRP, the “shrunken log2 fold change” value was -0.382.

For RRIRTRPPRLPRPRPRPNRRPRP, the “shrunken log2 fold change” value was determined as 0.0696.

For RRIRDRPPRLPRPRPRPCLAPRP, the “shrunken log2 fold change” value came to 0.291.

For the sequence RRIRARPPRLPRPRPRPSLPPRP, the “shrunken log2 fold change” value worked out at 0.157.

On to RRIRRRPPRLPRPRPRPALKPRP, for which the “shrunken log2 fold change” value came out at 0.366.

On to RRIRFRPPRLPRPRPRPKYAPRP, for which the “shrunken log2 fold change” value is -0.145.

Take RRIRARPPRLPRPRPRPMCNPRP: the “shrunken log2 fold change” value was found to be 0.186.

Turning to RRIRTRPPRLPRPRPRPMRSPRP, the “shrunken log2 fold change” value is 0.232.

RRIRWRPPRLPRPRPRPVGIPRP: the “shrunken log2 fold change” value was -0.198.

Consider RRIRSRPPRLPRPRPRPLYAPRP, for which the “shrunken log2 fold change” value is -0.164.

Consider RRIRRRPPRLPRPRPRPTNIPRP, for which the “shrunken log2 fold change” value was -0.304.

For the sequence RRIRHRPPRLPRPRPRPDHQPRP, the “shrunken log2 fold change” value is 0.0561.

Turning to RRIRNRPPRLPRPRPRPKMYPRP, the “shrunken log2 fold change” value was -0.0156.

RRIRCRPPRLPRPRPRPHKCPRP: the “shrunken log2 fold change” value was -0.721.

Turning to RRIRHRPPRLPRPRPRPAQVPRP, the “shrunken log2 fold change” value is -0.0333.

For RRIRRRPPRLPRPRPRPPMAPRP, the “shrunken log2 fold change” value was 0.487.

As for RRIRPRPPRLPRPRPRPWWVPRP, the “shrunken log2 fold change” value is 0.0961.

Take RRIRDRPPRLPRPRPRPRCDPRP: the “shrunken log2 fold change” value was -0.0149.

Consider RRIRQRPPRLPRPRPRPKDWPRP, for which the “shrunken log2 fold change” value was 0.377.

For RRIRDRPPRLPRPRPRPFSRPRP, the “shrunken log2 fold change” value is -0.164.

In the case of RRIRARPPRLPRPRPRPAKFPRP, the “shrunken log2 fold change” value came to 0.168.

With RRIRDRPPRLPRPRPRPSYGPRP, the “shrunken log2 fold change” value was -0.0489.

Turning to RRIRMRPPRLPRPRPRPKHNPRP, the “shrunken log2 fold change” value came out at 0.131.

As for RRIRHRPPRLPRPRPRPEAVPRP, the “shrunken log2 fold change” value was -0.00144.

Regarding RRIRKRPPRLPRPRPRPMDMPRP, the “shrunken log2 fold change” value came to 0.15.

With RRIRVRPPRLPRPRPRPLHTPRP, the “shrunken log2 fold change” value was -0.0261.

Turning to RRIRSRPPRLPRPRPRPLEVPRP, the “shrunken log2 fold change” value was -0.103.

Regarding RRIRKRPPRLPRPRPRPTSIPRP, the “shrunken log2 fold change” value amounted to 0.208.

RRIRPRPPRLPRPRPRPMLKPRP: the “shrunken log2 fold change” value came out at 0.0171.

With RRIRDRPPRLPRPRPRPNHMPRP, the “shrunken log2 fold change” value is -0.776.

As to RRIRGRPPRLPRPRPRPQEKPRP, the “shrunken log2 fold change” value was 0.0562.

As to RRIRIRPPRLPRPRPRPKTCPRP, the “shrunken log2 fold change” value stood at 0.179.

Regarding RRIRTRPPRLPRPRPRPIGHPRP, the “shrunken log2 fold change” value was -0.111.

For RRIRCRPPRLPRPRPRPDYKPRP, the “shrunken log2 fold change” value is -0.375.

Regarding RRIRQRPPRLPRPRPRPRAGPRP, the “shrunken log2 fold change” value was found to be 0.389.

As to RRIRIRPPRLPRPRPRPQRNPRP, the “shrunken log2 fold change” value is -0.188.

Take RRIRPRPPRLPRPRPRPMWSPRP: the “shrunken log2 fold change” value was -0.276.

On to RRIRKRPPRLPRPRPRPNARPRP, for which the “shrunken log2 fold change” value is 0.076.

In the case of RRIRWRPPRLPRPRPRPNTWPRP, the “shrunken log2 fold change” value amounted to 0.245.

Regarding RRIRDRPPRLPRPRPRPNCRPRP, the “shrunken log2 fold change” value was 0.0111.

On to RRIRARPPRLPRPRPRPLADPRP, for which the “shrunken log2 fold change” value came to 0.42.

As to RRIRLRPPRLPRPRPRPHHTPRP, the “shrunken log2 fold change” value is -0.558.
